In PMC5922973, “Topoisomerase VI senses and exploits both DNA crossings and bends to facilitate strand passage” (eLife, 2018):

Key:
Test in all cases: fluorescence anisotropy; Fluorescence anisotropy, 20 nM FAM-labelled DNA, topo VI 0 and 3.9-4000 nM, no nucleotide; buffer, salt, pH and temperature not given in supplied text
Details in all cases: protein: recombinant, tags: N-terminal His6-TEV on Top6B, removed, chain copies: 2;2
topo VI H2TH-EEE = molecular target: T1, topo VI H2TH-EEE (Methanosarcina mazei, UniProt Q8PUB7;Q8PUB8 1-369;1-621, R263E;K268E;K308E)
T1 sequence 1: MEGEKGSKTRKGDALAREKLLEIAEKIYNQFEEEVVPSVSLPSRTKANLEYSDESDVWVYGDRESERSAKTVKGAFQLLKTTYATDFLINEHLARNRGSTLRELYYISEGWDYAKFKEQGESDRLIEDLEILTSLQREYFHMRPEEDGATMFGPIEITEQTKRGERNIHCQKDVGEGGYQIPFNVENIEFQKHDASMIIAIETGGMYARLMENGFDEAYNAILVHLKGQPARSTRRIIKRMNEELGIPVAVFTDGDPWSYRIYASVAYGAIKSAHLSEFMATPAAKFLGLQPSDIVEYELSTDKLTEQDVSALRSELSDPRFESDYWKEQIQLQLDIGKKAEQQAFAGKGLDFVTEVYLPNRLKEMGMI
T1 sequence 2: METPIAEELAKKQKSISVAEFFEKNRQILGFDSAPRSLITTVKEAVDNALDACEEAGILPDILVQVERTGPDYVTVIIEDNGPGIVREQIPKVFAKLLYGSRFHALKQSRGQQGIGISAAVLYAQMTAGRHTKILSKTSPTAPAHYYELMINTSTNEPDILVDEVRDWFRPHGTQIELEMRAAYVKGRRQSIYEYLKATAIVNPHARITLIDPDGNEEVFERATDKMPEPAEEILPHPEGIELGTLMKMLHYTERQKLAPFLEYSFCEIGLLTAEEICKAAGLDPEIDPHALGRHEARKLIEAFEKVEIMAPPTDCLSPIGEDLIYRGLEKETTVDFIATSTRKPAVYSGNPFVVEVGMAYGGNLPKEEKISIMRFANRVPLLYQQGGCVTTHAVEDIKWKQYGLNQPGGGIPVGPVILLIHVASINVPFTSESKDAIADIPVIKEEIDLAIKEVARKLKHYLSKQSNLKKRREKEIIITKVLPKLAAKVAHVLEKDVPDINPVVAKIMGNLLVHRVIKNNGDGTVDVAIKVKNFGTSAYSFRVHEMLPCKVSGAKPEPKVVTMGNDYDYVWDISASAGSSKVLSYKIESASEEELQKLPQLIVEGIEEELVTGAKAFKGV

topo VI H2TH-AAA = molecular target: T2, topo VI H2TH-AAA (Methanosarcina mazei, UniProt Q8PUB7;Q8PUB8 1-369;1-621, R263A;K268A;K308A)
T2 sequence 1: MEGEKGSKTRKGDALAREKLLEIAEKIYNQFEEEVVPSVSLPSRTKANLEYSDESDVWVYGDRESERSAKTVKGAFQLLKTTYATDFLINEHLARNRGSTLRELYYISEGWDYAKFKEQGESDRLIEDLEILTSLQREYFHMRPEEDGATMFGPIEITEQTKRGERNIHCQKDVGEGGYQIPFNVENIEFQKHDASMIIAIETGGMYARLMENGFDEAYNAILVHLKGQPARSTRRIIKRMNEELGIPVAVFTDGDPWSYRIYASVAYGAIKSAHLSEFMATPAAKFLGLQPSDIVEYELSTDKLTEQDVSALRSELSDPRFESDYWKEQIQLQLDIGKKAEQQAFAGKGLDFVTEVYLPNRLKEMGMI
T2 sequence 2: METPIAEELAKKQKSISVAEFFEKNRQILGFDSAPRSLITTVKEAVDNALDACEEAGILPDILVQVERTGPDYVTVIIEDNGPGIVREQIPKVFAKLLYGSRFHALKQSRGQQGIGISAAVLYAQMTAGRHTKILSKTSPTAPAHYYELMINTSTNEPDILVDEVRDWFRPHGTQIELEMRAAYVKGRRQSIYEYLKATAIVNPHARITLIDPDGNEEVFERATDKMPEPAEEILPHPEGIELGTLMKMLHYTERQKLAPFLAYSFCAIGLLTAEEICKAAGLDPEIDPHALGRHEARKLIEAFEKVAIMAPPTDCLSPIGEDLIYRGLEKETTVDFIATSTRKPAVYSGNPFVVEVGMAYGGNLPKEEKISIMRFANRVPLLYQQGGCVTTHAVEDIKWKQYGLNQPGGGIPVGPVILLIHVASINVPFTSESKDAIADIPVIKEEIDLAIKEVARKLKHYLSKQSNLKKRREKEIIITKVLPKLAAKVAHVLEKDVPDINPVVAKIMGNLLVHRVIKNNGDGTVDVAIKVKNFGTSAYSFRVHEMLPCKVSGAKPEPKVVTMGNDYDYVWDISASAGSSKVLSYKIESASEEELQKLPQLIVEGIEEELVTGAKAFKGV

topo VI holoenzyme WT = molecular target: T3, topo VI holoenzyme WT (Methanosarcina mazei, UniProt Q8PUB7;Q8PUB8 1-369;1-621)
T3 sequence 1: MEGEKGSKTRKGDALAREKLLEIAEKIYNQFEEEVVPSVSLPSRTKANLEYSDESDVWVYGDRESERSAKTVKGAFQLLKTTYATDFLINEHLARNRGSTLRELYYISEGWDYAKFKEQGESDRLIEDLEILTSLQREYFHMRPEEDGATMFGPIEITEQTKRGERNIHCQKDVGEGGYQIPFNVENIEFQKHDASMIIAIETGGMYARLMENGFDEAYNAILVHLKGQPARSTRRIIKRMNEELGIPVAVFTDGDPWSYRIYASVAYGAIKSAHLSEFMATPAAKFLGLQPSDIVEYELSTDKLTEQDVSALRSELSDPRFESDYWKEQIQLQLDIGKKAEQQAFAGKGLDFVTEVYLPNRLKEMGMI
T3 sequence 2: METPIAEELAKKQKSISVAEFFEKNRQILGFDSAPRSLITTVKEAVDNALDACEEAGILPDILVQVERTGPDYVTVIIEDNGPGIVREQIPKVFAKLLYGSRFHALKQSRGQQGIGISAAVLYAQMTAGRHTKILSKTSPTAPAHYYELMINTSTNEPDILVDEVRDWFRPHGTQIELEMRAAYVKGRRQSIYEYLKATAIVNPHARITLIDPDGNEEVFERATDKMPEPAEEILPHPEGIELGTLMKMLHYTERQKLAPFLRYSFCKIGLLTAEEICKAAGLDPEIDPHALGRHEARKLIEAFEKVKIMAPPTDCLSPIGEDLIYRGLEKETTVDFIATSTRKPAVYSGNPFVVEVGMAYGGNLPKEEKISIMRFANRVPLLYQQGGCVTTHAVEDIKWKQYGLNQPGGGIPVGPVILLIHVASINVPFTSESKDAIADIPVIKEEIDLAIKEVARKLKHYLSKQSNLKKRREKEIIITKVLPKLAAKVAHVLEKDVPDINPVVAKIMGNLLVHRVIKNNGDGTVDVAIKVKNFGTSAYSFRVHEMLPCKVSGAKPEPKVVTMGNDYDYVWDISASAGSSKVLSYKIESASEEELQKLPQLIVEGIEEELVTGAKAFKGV

[1] = label: 5'-FAM strand 2, four-way Holliday junction, stacked-X, two GAAA-capped arms

Row | Binder | Kd (topo VI H2TH-EEE; [1]) [nM] | Kd (topo VI H2TH-AAA; [1]) [nM] | Kd (topo VI holoenzyme WT; [1]) [nM] | Kd (topo VI H2TH-EEE; label: 5'-FAM strand 1, blunt) [nM] | Kd (topo VI H2TH-AAA; label: 5'-FAM strand 1, blunt) [nM] | Kd (topo VI holoenzyme WT; label: 5'-FAM strand 1, blunt) [nM] | apparent K (half saturation) (topo VI H2TH-EEE; label: 5'-FAM strand 1, blunt) [nM]
1 | 16 x 20 bp stacked junction (structured_DNA) DNA 1: CGAATACTCAGCTCAACCGAAAGGTTGAGCCTTCGCTCGAAAGAGCGAAGTACTCTTCCG DNA 2: CGGAAGAGTATGAGTATTCG | 90 ± 4 | 181 ± 8 | 122 ± 4 | – | – | – | –
2 | 20 bp duplex (dsDNA) DNA 1: CGGAAGAGTATGAGTATTCG DNA 2: CGAATACTCATACTCTTCCG | – | – | – | 222 ± 11 | 505 ± 22 | 427 ± 16 | –
3 | 30 bp duplex (dsDNA) DNA 1: CAAAAAGGAAGAGTATGAGTATTCAACATC DNA 2: GATGTTGAATACTCATACTCTTCCTTTTTG | – | – | – | – | 94 ± 4 | 84 ± 6 | –
4 | 60 bp duplex (dsDNA) DNA 1: CGCTTCAATAATATTGAAAAAGGAAGAGTATGAGTATTCAACATTTCCGTGTCGCCCTTC DNA 2: GAAGGGCGACACGGAAATGTTGAATACTCATACTCTTCCTTTTTCAATATTATTGAAGCG | – | – | – | – | 167 ± 9 | 38 ± 2 | 109 ± 3
5 | 40 bp duplex (dsDNA) DNA 1: CTATTGAAAAAGGAAGAGTATGAGTATTCAACATTTCCGC DNA 2: GCGGAAATGTTGAATACTCATACTCTTCCTTTTTCAATAG | – | – | – | – | 58 ± 3 | 49 ± 3 | –
6 | 70 bp duplex (dsDNA) DNA 1: CCAAATGCTTCAATAATATTGAAAAAGGAAGAGTATGAGTATTCAACATTTCCGTGTCGCCCTTATTCCC DNA 2: GGGAATAAGGGCGACACGGAAATGTTGAATACTCATACTCTTCCTTTTTCAATATTATTGAAGCATTTGG | – | – | – | – | 180 ± 12 | 62 ± 4 | 103 ± 3
